The text below walks through data of US20090202547A1 (FIBRON, published 2009).

Assay [1] deals with T1, FR1exFc (UniProt P11362 22-376, limits assumed).
T1 construct: extracellular domain; also called FGFR1/Fc; FR1/Fc; not shown: Fc part; the construct of FR1exFc is not described
T1 sequence (looked up): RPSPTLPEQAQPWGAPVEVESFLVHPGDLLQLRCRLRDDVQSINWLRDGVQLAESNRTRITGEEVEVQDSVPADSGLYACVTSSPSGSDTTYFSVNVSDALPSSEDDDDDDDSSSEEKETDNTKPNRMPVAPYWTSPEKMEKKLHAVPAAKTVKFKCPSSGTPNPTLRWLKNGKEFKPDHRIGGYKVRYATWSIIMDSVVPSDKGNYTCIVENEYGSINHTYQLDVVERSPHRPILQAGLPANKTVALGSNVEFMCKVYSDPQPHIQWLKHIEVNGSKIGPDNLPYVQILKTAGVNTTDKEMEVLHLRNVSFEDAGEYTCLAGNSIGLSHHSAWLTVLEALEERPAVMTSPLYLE
The assay can be described thus: ELISA, FGFR/Fc captured on anti-human Fc coated plate, detection with anti-human Fab-HRP.

The target in assay [2] is T2, FR3exFc (human).
T2 construct: also called FGFR3/Fc; FR3/Fc
T2 sequence (chain, as listed by the source limits assumed): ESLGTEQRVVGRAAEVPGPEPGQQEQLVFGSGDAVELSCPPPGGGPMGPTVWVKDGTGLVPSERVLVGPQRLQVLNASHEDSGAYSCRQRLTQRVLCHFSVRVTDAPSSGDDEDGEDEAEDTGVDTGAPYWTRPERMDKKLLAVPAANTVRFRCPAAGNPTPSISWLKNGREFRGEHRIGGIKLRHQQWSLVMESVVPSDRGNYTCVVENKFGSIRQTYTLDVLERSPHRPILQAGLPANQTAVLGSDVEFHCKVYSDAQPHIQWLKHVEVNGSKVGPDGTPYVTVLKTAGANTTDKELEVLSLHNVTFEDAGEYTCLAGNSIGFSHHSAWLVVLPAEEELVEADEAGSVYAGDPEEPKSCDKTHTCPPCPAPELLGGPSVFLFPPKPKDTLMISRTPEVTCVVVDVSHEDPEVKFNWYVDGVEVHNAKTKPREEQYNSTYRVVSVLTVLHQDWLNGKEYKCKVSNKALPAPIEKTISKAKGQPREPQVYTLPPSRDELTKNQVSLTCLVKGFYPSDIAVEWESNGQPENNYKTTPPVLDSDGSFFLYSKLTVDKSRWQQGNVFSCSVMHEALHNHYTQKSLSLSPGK
The assay can be described thus: BIAcore, Fab-dHLX-MH miniantibody; Fab-dHLX-MH miniantibody (dimer). A general note: Surface plasmon resonance follows binding to a sensor surface in real time, without labels.

Assay [3] concerns the target T3, FGFR3 (wild type) on cells (human, UniProt P22607 23-806). The assay can be described thus: cell-based or functional assay.
For assay [4], the target named is T2, FR3exFc. The assay can be described thus: BIAcore, Fab-dHLX-MH miniantibody.
The target in assay [5] is T2, FR3exFc. The assay can be described thus: BIACORE. The method, then:
(§1) The affinity measurements were performed by BIACORE® analysis according to the standard procedure recommended by the supplier (Pharmacia). The anti-Fc antibody was coupled via the EDC/NHS chemistry to the chip and subsequently FGFR3 was captured. The Fabs of the invention were then bound to this surface.

The target in assay [6] is T2, FR3exFc. The assay can be described thus: BIACORE, FGFR3 captured on an anti-Fc chip. The method, then: as §1
The next assay concerns the target T4, hFR3^D2Fc (human, UniProt P22607 143-250).
T4 construct: Only domain 2 of the entry stood in the assay; also called product of pChFR3^D2Fc; not shown: human Fc
T4 sequence: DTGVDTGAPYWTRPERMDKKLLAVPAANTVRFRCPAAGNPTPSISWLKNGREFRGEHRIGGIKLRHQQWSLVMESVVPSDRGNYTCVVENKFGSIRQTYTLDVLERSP
The assay can be described thus: ELISA, Fc fusion anchored on an anti-human Fc coated plate, bound Fab detected with HRP anti-human Fab. From the text: Constructs comprising cDNAs that code for segments of the extracellular domain of FGFR3 were generated (FIG. 10). D2 comprises Ig domain 2, D2-3 comprises Ig domains 2 and 3, and D1-3 comprises Ig domains 1, 2 and 3. These constructs include pChFR3^D2Fc that codes for Ig-like domain 2 of FGFR3 and pChFR3^{D2,3}Fc that codes for domain 2 and 3, both as human Fc fusions. The corresponding chimeric proteins, as well as the control hFR3exFc (containing domains 1, 2 and 3) were anchored to an ELISA plate coated with a human Fc antibody. A panel of 8 best Fabs, MSPRO2, 11, 12, 21, 24, 26, 28 and 29, were added, and bound Fab was determined with HRP-α human Fab (FIG. 11). […] Both bind to the Ig like domain 2 while the others require domain 3 for binding. It was then tested whether or not Fabs that belong to the second group would distinguish the FGFR3IIIc isoform from the FGFRIIIb from. FDCP-FR3IIIb or FDCP-FR3IIIc cells were incubated in the presence of 1.25 ng/ml FGF9 with increasing doses of either MSPRO12 or MSPRO29. Ly6.3 was included as control. After 2 days in culture, cell proliferation was measured with the XTT reagent. Clearly, MSPRO29 (open triangle) was completely ineffective against the IIIb isoform (FIG. 12).
(ELISA stands for enzyme-linked immunosorbent assay.)

Assay [7] concerns the target T3, FGFR3 (wild type) on cells. The assay can be described thus: cell-based or functional assay. This is another data set of the same source.
Assay [8] addresses T3, FGFR3 (wild type) on cells. The assay can be described thus: indirect FACS-Scatchard.
In assay [9] the target is T2, FR3exFc. The assay can be described thus: BIACORE, FGFR3 captured on an anti-Fc chip. Here is the method:
as §1
This is another data set of the same source.

Assay [10] addresses T1, FR1exFc. The assay can be described thus: Affinity to FGFR1 (BIACORE and/or FACS).
The target of assay [11] is T3, FGFR3 (wild type) on cells. The assay can be described thus: cell-based or functional assay. The source holds these as a separate data set.
The target of assay [12] is T3, FGFR3 (wild type) on cells. The assay can be described thus: FACS. A general note: A flow cytometer gives signals particle by particle.
The target in assay [13] is T2, FR3exFc. The assay can be described thus: BIAcore; number in parentheses taken as the monomeric Fab. Here is the method:
as §1

T3 sequence (P22607 23-806 limits assumed): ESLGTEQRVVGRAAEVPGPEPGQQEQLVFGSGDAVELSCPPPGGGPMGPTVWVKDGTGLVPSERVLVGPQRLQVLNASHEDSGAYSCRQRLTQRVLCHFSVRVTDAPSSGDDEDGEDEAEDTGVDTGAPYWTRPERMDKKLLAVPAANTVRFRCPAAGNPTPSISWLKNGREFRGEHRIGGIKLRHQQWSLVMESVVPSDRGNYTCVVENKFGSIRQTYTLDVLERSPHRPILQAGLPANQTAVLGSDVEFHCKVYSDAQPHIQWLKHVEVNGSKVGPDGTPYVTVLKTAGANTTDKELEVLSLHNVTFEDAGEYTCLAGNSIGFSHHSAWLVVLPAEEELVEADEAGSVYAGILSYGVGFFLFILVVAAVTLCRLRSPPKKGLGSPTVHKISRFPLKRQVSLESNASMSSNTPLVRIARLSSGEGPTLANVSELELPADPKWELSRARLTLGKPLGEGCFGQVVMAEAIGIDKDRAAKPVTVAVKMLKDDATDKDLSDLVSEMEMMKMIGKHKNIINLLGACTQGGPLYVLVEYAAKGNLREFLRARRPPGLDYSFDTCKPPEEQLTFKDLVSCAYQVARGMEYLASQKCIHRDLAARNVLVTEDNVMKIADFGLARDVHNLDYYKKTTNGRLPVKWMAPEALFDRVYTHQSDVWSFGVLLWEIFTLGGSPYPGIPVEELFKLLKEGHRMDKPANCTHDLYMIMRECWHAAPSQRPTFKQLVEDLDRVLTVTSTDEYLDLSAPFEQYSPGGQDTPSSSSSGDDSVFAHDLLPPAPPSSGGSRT

B1: MS-Pro-2-dHLX-MH (Fab, V domains shown)
VH: QVQLVQSGAEVKKPGASVKVSCKASGYTFTSYYMHWVRQAPGQGLEWMGWINPNSGGTNYAQKFQGRVTMTRDTSISTAYMELSSLRSEDTAVYYCARDFLGYEFDYWGQGTLVTVSS
VL: DIELTQPPSVSVAPGQTARISCSGDALGDKYASWYQQKPGQAPVLVIYDDSDRPSGIPERFSGSNSGNTATLTISGTQAEDEADYYCQSYDYSADYVFGGGTKLTVLG
notes: Fab mini-antibody format Fab-dHLX-MH, a dimer of the Fab monomer made as a fusion protein; also called MSPRO2 dimeric dHLX format; Fab-dHLX
On to B1, for which, in the assay with FR1exFc [1], the binding result is listed as “no binding”. For the same molecule, binding with FR3exFc [2] was characterised by a dissociation constant (Kd) of 4.3 nM. In assay [3], the “IC50, FDCP-FGFR3 proliferation assay with FGF9, dimeric dHLX format” value (“IC50 … dimeric dHLX format” for short) turned out to be 61 nM.

B2: MS-Pro-12-dHLX-MH (Fab, V domains shown)
VH: QVQLKESGPALVKPTQTLTLTCTFSGFSLSTSGVGVGWIRQPPGKALEWLALIDWDDDKYYSTSLKTRLTISKDTSKNQVVLTMTNMDPVDTATYYCARYHSWYEMGYYGSTVGYMFDYWGQGTLVTVSS
VL: DIELTQPPSVSVAPGQTARISCSGDALGDKYASWYQQKPGQAPVLVIYDDSDRPSGIPERFSGSNSGNTATLTISGTQAEDEADYYCQSYDFDFAVFGGGTKLTVLG
notes: Fab mini-antibody format Fab-dHLX-MH, a dimer of the Fab monomer; also called MSPRO12 dimeric dHLX format; Fab-dHLX
As to B2, the binding result in the assay with FR1exFc [1] is recorded as “no binding”. The “IC50 … dimeric dHLX format” value in assay [3] was 26 nM. For the same molecule, in the assay with FR3exFc [4], binding was characterised by a dissociation constant (Kd) of 1.2 nM.

B3: MS-Pro-21-dHLX-MH (Fab, V domains shown)
VH: QVQLVQSGAEVKKPGSSVKVSCKASGGTFSSYAISWVRQAPGQGLEWMGGIIPIFGTANYAQKFQGRVTITADESTSTAYMELSSLRSEDTAVYYCARDNWFKPFSDVWGQGTLVTVSS
VL: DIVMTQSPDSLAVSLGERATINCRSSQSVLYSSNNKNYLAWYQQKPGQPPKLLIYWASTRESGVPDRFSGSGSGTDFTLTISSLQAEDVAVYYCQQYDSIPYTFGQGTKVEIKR
notes: Fab mini-antibody format Fab-dHLX-MH, a dimer of the Fab monomer; also called MSPRO21 dimeric dHLX format; Fab-dHLX
Take B3: the Kd in the assay with FR3exFc [2] turned out to be 2.2 nM. For the same molecule, the “IC50 … dimeric dHLX format” value in assay [3] amounted to 20 nM.

B4: MSPRO29 (Fab, V domains shown)
VH: QVQLVQSGAEVKKPGASVKVSCKASGYTFTSYYMHWVRQAPGQGLEWMGWINPNSGGTNYAQKFQGRVTMTRDTSISTAYMELSSLRSEDTAVYYCARTWQYSYFYYLDGGYYFDIWGQGTLVTVSS
VL: DIVLTQSPATLSLSPGERATLSCRASQSVSSSYLAWYQQKPGQAPRLLIYGASSRATGVPARFSGSGSGTDFTLTISSLEPEDFATYYCQQTNNAPVTFGQGTKVEIKR
For B4, the off-rate constant (koff) with FR3exFc [5] came out at 0.0014 s⁻¹. Further, the dissociation constant Kd is 6 nM in the assay with FR3exFc [6]; 0.4 nM in assay [8]; 6 nM in the assay with FR3exFc [9]; 29 nM in the assay with FR1exFc [10]; below 1 nM in [12]. The binding result in the assay with hFR3^D2Fc is on record as “no binding”. For the same molecule, the “amount of Fab that inhibits FGFR3 activation (JNK signaling) in RCJ-FR3 cells” value in [7] was below 5 µg. Moreover, the “IC50 FR3 (FGF9), FDCP-FGFR3 proliferation assay” value in [11] is 20 nM.

B5: MSPRO26 (Fab, V domains shown)
VH: QVQLVQSGAEVKKPGASVKVSCKASGYTFTSYYMHWVRQAPGQGLEWMGWINPNSGGTNYAQKFQGRVTMTRDTSISTAYMELSSLRSEDTAVYYCARGYWYAYFTYINYGYFDNWGQGTLVTVSS
VL: DIALTQPASVSGSPGQSITISCTGTSSDVGGYNYVSWYQQHPGKAPKLMIYDVSNRPSGVSNRFSGSKSGNTASLTISGLQAEDEADYYCQSYDNNSDVVFGGGTKLTVLG
Take B5: the Kd with FR3exFc [13] worked out at 4 nM; in the assay with FR3exFc [6] it was 4 nM; in [8], 1.4 nM; with FR3exFc [9], 4 nM; with FR1exFc [10] it was 32 nM; in assay [12], 1.4 nM. Besides, in the assay with FR3exFc [5], the off-rate (koff) stood at 0.0005 s⁻¹. Further, the binding result with hFR3^D2Fc is on record as “no binding”. Further, in assay [3], the “IC50, FDCP-FGFR3 proliferation assay with FGF9, monomeric Fab (in parentheses)” value is 70 nM. Besides, in assay [11], the “IC50 FR3 (FGF9), FDCP-FGFR3 proliferation assay” value stood at 70 nM.

For orientation: Kd means the free concentration of one partner at which half of the binding sites on the other are occupied at equilibrium, for simple one-to-one binding. A word on the koff: it is the rate constant with which the complex falls apart. Read a low koff as a long-lived complex.
